# In patent US20180155451A1 (published 2018):
# B1: GpH7-A5/GpH7-B3 variant S298_11K/GpL16-k0 (antibody, human IgG1, kappa)
# heavy 1: not shown
# heavy 2: not shown
# light: DIVMTQSPLSLPVTPGEPASISCQASESLVHSNRNTYLHWYLQKPGQSPQLLIYKVSNRFSGVPDRFSGSGSGTDFTLKISRVEAEDVGVYYCSQNTHVPPTFGQGTKVEIERTVAAPSVFIFPPSDEQLKSGTASVVCLLNNFYPREAKVQWKVDNALQSGNSQESVTEQDSKDSTYSLSSTLTLSKADYEKHKVYACEVTHQGLSSPVTKSFNRGEC
# notes: mutation in one H chain only; also called He Ab S298_11K; S298K
# B2: GpH7-A5/GpH7-B3 variant S267_09D/GpL16-k0 (antibody, human IgG1, kappa)
# heavy 1: not shown
# heavy 2: not shown
# light: B1 light
# notes: mutation in one H chain only; also called He Ab S267_09D; S267D
# B3: GpH7-A5/GpH7-B3 variant S298_18N/GpL16-k0 (antibody, human IgG1, kappa)
# heavy 1: not shown
# heavy 2: not shown
# light: B1 light
# notes: mutation in one H chain only; also called He Ab S298_18N; S298N
# B4: GpH7-A5/GpH7-B3 variant S298_14T/GpL16-k0 (antibody, human IgG1, kappa)
# heavy 1: not shown
# heavy 2: not shown
# light: B1 light
# notes: mutation in one H chain only; also called He Ab S298_14T; S298T
# B5: GpH7-A5/GpH7-B3 variant S298_04F/GpL16-k0 (antibody, human IgG1, kappa)
# heavy 1: not shown
# heavy 2: not shown
# light: B1 light
# notes: mutation in one H chain only; also called He Ab S298_04F; S298F
# B6: GpH7-A5/GpH7-B3 variant S267_08L/GpL16-k0 (antibody, human IgG1, kappa)
# heavy 1: not shown
# heavy 2: not shown
# light: B1 light
# notes: mutation in one H chain only; also called He Ab S267_08L; S267L
# B7: GpH7-A5/GpH7-B3 variant S298_19Q/GpL16-k0 (antibody, human IgG1, kappa)
# heavy 1: not shown
# heavy 2: not shown
# light: B1 light
# notes: mutation in one H chain only; also called He Ab S298_19Q; S298Q
# B8: GpH7-A5/GpH7-B3 variant S239_14T/GpL16-k0 (antibody, human IgG1, kappa)
# heavy 1: not shown
# heavy 2: not shown
# light: B1 light
# notes: mutation in one H chain only; also called He Ab S239_14T; S239T
# B9: GpH7-A5/GpH7-B3 variant S239_18N/GpL16-k0 (antibody, human IgG1, kappa)
# heavy 1: not shown
# heavy 2: not shown
# light: B1 light
# notes: mutation in one H chain only; also called He Ab S239_18N; S239N
# B10: GpH7-A5/GpH7-B3 variant S298_12R/GpL16-k0 (antibody, human IgG1, kappa)
# heavy 1: not shown
# heavy 2: not shown
# light: B1 light
# notes: mutation in one H chain only; also called He Ab S298_12R; S298R
# B11: GpH7-A5/GpH7-B3 variant S298_10E/GpL16-k0 (antibody, human IgG1, kappa)
# heavy 1: not shown
# heavy 2: not shown
# light: B1 light
# notes: mutation in one H chain only; also called He Ab S298_10E; S298E
# B12: GpH7-A5/GpH7-B3 variant S298_08L/GpL16-k0 (antibody, human IgG1, kappa)
# heavy 1: not shown
# heavy 2: not shown
# light: B1 light
# notes: mutation in one H chain only; also called He Ab S298_08L; S298L
# B13: GpH7-A5/GpH7-B3 variant S324_03V/GpL16-k0 (antibody, human IgG1, kappa)
# heavy 1: not shown
# heavy 2: not shown
# light: B1 light
# notes: mutation in one H chain only; also called He Ab S324_03V; S324V
# B14: GpH7-A5/GpH7-B3 variant S298_20W/GpL16-k0 (antibody, human IgG1, kappa)
# heavy 1: not shown
# heavy 2: not shown
# light: B1 light
# notes: mutation in one H chain only; also called He Ab S298_20W; S298W
# B15: GpH7-A5/GpH7-B3 variant S267_01G/GpL16-k0 (antibody, human IgG1, kappa)
# heavy 1: not shown
# heavy 2: not shown
# light: B1 light
# notes: mutation in one H chain only; also called He Ab S267_01G; S267G
# B16: GpH7-A5/GpH7-B3 variant S239_09D/GpL16-k0 (antibody, human IgG1, kappa)
# heavy 1: not shown
# heavy 2: not shown
# light: B1 light
# notes: mutation in one H chain only; also called He Ab S239_09D; S239D
# B17: GpH7-A5/GpH7-B3 variant S239_19Q/GpL16-k0 (antibody, human IgG1, kappa)
# heavy 1: not shown
# heavy 2: not shown
# light: B1 light
# notes: mutation in one H chain only; also called He Ab S239_19Q; S239Q
# B18: GpH7-A5/GpH7-B3 variant S267_02A/GpL16-k0 (antibody, human IgG1, kappa)
# heavy 1: not shown
# heavy 2: not shown
# light: B1 light
# notes: mutation in one H chain only; also called He Ab S267_02A; S267A
# B19: GpH7-A5/GpH7-B3 variant S298_16H/GpL16-k0 (antibody, human IgG1, kappa)
# heavy 1: not shown
# heavy 2: not shown
# light: B1 light
# notes: mutation in one H chain only; also called He Ab S298_16H; S298H
# B20: GpH7-A5/GpH7-B3 variant S267_16H/GpL16-k0 (antibody, human IgG1, kappa)
# heavy 1: not shown
# heavy 2: not shown
# light: B1 light
# notes: mutation in one H chain only; also called He Ab S267_16H; S267H
# B21: GpH7-A5/GpH7-B3 variant S298_03V/GpL16-k0 (antibody, human IgG1, kappa)
# heavy 1: not shown
# heavy 2: not shown
# light: B1 light
# notes: mutation in one H chain only; also called He Ab S298_03V; S298V
# B22: GpH7-A5/GpH7-B3 variant S298_02A/GpL16-k0 (antibody, human IgG1, kappa)
# heavy 1: not shown
# heavy 2: not shown
# light: B1 light
# notes: mutation in one H chain only; also called He Ab S298_02A; S298A
# B23: GpH7-A5/GpH7-B3 variant S298_07I/GpL16-k0 (antibody, human IgG1, kappa)
# heavy 1: not shown
# heavy 2: not shown
# light: B1 light
# notes: mutation in one H chain only; also called He Ab S298_07I; S298I
# B24: GpH7-A5/GpH7-B3 variant S298_15Y/GpL16-k0 (antibody, human IgG1, kappa)
# heavy 1: not shown
# heavy 2: not shown
# light: B1 light
# notes: mutation in one H chain only; also called He Ab S298_15Y; S298Y
# B25: GpH7-A5/GpH7-B3 variant S298_01G/GpL16-k0 (antibody, human IgG1, kappa)
# heavy 1: not shown
# heavy 2: not shown
# light: B1 light
# notes: mutation in one H chain only; also called He Ab S298_01G; S298G
# B26: GpH7-A5/GpH7-B3 variant S324_02A/GpL16-k0 (antibody, human IgG1, kappa)
# heavy 1: not shown
# heavy 2: not shown
# light: B1 light
# notes: mutation in one H chain only; also called He Ab S324_02A; S324A
# B27: GpH7-A5/GpH7-B3 variant S298_06M/GpL16-k0 (antibody, human IgG1, kappa)
# heavy 1: not shown
# heavy 2: not shown
# light: B1 light
# notes: mutation in one H chain only; also called He Ab S298_06M; S298M
# B28: GpH7-A5/GpH7-B3 variant S267_03V/GpL16-k0 (antibody, human IgG1, kappa)
# heavy 1: not shown
# heavy 2: not shown
# light: B1 light
# notes: mutation in one H chain only; also called He Ab S267_03V; S267V
# B29: GpH7-A5/GpH7-B3 variant S324_08L/GpL16-k0 (antibody, human IgG1, kappa)
# heavy 1: not shown
# heavy 2: not shown
# light: B1 light
# notes: mutation in one H chain only; also called He Ab S324_08L; S324L
# B30: GpH7-B3 variant S324_14T/GpL16-k0 (antibody, human IgG1, kappa)
# heavy: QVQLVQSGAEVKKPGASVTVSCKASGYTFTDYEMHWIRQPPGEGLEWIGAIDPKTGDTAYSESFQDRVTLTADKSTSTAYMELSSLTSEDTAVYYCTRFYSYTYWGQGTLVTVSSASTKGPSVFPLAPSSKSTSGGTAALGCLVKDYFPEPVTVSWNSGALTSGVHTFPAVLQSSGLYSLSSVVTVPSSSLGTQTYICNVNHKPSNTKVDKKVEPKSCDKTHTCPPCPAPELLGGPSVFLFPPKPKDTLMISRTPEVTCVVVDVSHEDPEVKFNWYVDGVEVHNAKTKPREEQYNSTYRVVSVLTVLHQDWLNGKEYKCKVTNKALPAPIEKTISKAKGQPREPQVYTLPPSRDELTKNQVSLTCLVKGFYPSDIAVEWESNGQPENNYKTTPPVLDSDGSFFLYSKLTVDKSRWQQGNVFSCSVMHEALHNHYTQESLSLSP
# light: B1 light
# notes: mutation in both H chains; also called Ho Ab S324_14T; S324T
# Biological target: T1, FcγRIa extracellular domain with C-terminal His tag (human, UniProt P12314 16-292)
# T1 construct: extracellular domain; also called FcgRI; CD64; not shown: His tag at the C terminus
# Experiment: SPR Biacore, relative FcγRIa binding vs GpH7-A5/GpH7-B3/GpL16-k0
# T1 sequence (P12314 16-292): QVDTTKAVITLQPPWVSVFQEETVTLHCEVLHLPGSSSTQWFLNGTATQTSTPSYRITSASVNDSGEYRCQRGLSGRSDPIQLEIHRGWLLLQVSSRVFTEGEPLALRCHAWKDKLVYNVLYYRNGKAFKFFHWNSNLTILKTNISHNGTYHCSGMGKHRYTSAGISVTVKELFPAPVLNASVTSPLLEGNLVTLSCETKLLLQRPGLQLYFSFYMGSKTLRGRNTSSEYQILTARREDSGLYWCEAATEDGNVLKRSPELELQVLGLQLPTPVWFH
row,He/Con_1a,Binder
1,109 % of HeCon Ab (=100),B1
2,110 % of HeCon Ab (=100),B2
3,108 % of HeCon Ab (=100),B3
4,107 % of HeCon Ab (=100),B4
5,109 % of HeCon Ab (=100),B5
6,101 % of HeCon Ab (=100),B6
7,109 % of HeCon Ab (=100),B7
8,101 % of HeCon Ab (=100),B8
9,101 % of HeCon Ab (=100),B9
10,109 % of HeCon Ab (=100),B10
11,108 % of HeCon Ab (=100),B11
12,107 % of HeCon Ab (=100),B12
13,104 % of HeCon Ab (=100),B13
14,104 % of HeCon Ab (=100),B14
15,103 % of HeCon Ab (=100),B15
16,101 % of HeCon Ab (=100),B16
17,101 % of HeCon Ab (=100),B17
18,109 % of HeCon Ab (=100),B18
19,109 % of HeCon Ab (=100),B19
20,100 % of HeCon Ab (=100),B20
21,110 % of HeCon Ab (=100),B21
22,107 % of HeCon Ab (=100),B22
23,107 % of HeCon Ab (=100),B23
24,107 % of HeCon Ab (=100),B24
25,104 % of HeCon Ab (=100),B25
26,103 % of HeCon Ab (=100),B26
27,114 % of HeCon Ab (=100),B27
28,106 % of HeCon Ab (=100),B28
29,103 % of HeCon Ab (=100),B29

# Biological target: T1, FcγRIa extracellular domain with …
# Experiment: SPR Biacore, relative FcγRIa binding vs GpH7-B3/GpL16-k0
row,Ho/Con_1a,Binder
1,112 % of HoCon Ab (=100),B30
